Test results reported in article PMC10486284.

Biological target: T1, Human TIGIT extracellular domain, C-terminal hexahistidine and AviTag (human), Q495A1
T1 chain: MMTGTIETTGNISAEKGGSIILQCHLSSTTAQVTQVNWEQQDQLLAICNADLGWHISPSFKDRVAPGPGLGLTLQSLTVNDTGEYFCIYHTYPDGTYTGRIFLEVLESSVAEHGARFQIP
Assay: SEC-MALS
Details: remark: other sources report otherwise

- stoichiometry N: 1
B1: Human CD112 extracellular domain, C-terminal hexahistidine, Q92692 32-360 (ligand)
chain: QDVRVQVLPEVRGQLGGTVELPCHLLPPVPGLYISLVTWQRPDAPANHQNVAAFHPKMGPSFPSPKPGSERLSFVSAKQSTGQDTEAELQDATLALHGLTVEDEGNYTCEFATFPKGSVRGMTWLRVIAKPKNQAEAQKVTFSQDPTTVALCISKEGRPPARISWLSSLDWEAKETQVSGTLAGTVTVTSRFTLVPSGRADGVTVTCKVEHESFEEPALIPVTLSVRYPPEVSISGYDDNWYLGRTDATLSCDVRSNPEPTGYDWSTTSGTFPTSAVAQGSQLVIHAVDSLFNTTFVCTVTNAVGMGRAEQVIFVRETPNTAGAGATGG
modifications: here or on the partner: biotin on the BirA biotinylation tag (BLI and ProteOn SPR)
